The values below come from US20220401557A1 (Chugai, published 2022).

Assay [1] has as its target CD3 on NFAT-RE-luc2-Jurkat cells (human, UniProt P07766 23-207). Kind of assay: cell-based or functional assay.
A further assay addresses T1, CD3εδ heterodimer (Homo sapiens (Human), UniProt P07766 22-126; P04234 22-100).
T1 construct: also called CD3ε8
Briefly: SPR, Biacore T200; antibody captured on Protein G (CM3 chip), CD3εδ heterodimer as analyte, single cycle kinetics, 37 C. The procedure: The activity of binding to the CD3εδ heterodimer was measured for: the rat anti-CD3 antibody containing as the variable region the heavy chain variable region (SEQ ID NO: 10) and the light chain variable region (SEQ ID NO: 11) described in Reference Example 1; a combination of a human anti-CD3 antibody and a rat anti-CD3 antibody which contains as the variable region a heavy chain variable region (SEQ ID NO: 12) and a light chain variable region (SEQ ID NO: 13) where the light chain has been humanized by a method known to those skilled in the art; a humanized anti-CD3 antibody which contains as the variable region a heavy chain variable region (SEQ ID NO: 12) and a light chain variable region (SEQ ID NO: 13), which have been humanized by a method known to those skilled in the art; and AN121 which contains as the variable region a heavy chain variable region (SEQ ID NO: 43) and a light chain variable region (SEQ ID NO: 13). The heavy chain variable regions were fused with F760mnP17 (SEQ ID NO: 39) used as the constant region and the light chain variable regions were fused with the Kappa chain (SEQ ID NO: 36) used as the constant region, and the antibodies were expressed according to the method of Reference Example 2.
The activity of binding to the CD3εδ heterodimer was assessed using BiacoreT200. Specifically, Protein G was immobilized onto a CM3 chip by a method known to those skilled in the art, and antibodies to be evaluated were bound to the immobilized Protein G. Then, the CD3εδ heterodimer prepared at 4000, 1000, 250, 62.5, 15.6, and 3.9 nM was bound thereto, and the binding was evaluated using the single cycle kinetics mode. Measurements were taken under conditions of 20 mM ACES, 150 mM NaCl, and pH7.4 at 37° C.

Sequence of CD3 on NFAT-RE-luc2-Jurkat cells (P07766 23-207): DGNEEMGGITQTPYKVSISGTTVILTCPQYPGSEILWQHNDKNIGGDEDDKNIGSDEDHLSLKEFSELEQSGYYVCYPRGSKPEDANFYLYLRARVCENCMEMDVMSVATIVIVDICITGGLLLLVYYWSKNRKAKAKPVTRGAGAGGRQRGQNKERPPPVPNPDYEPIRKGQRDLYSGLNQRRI
T1 sequence (P07766 other isoform, or with tags, fused parts or gaps mutant limits assumed, chain 1 of 2): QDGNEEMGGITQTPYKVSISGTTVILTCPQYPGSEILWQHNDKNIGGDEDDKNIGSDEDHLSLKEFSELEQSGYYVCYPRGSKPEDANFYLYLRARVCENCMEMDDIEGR
T1 sequence (P04234 other isoform, or with tags, fused parts or gaps mutant limits assumed, chain 2 of 2): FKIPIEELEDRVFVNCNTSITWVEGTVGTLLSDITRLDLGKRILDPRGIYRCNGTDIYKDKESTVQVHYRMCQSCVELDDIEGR

B1: ANuPA20L/GLS//GCH065 (bispecific antibody, human IgG1, kappa, N297A)
heavy 1: QDGNEEMGGITQTPYKVSISGGGGSGGGGSGGGGSLSGRSDNHGGGSQVQLVESGGGLVQPGRSLRLSCAASGFTFSNAWMHWVRQAPGKGLEWVAQIKDKANGYNAYYAESVKGRFTISRDDSKNSIYLQMNSLKTEDTAVYYCRYVHYTTYAGFSYKFGVDAWGQGTTVTVSSASTKGPSVFPLAPSSKSTSGGTAALGCLVKDYFPEPVTVSWNSGALTSGVHTFPAVLQSSGLYSLSSVVTVPSSSLGTQTYICNVNHKPSNTKVDKKVEPKSCDKTHTCPPCPAPELRGGPKVFLFPPKPKDTLMISRTPEVTCVVVDVSHEDPEVKFNWYVDGVEVHNAKTKPREEQYASTYRVVSVLTVLHQDWLNGKEYKCKVSNKALPAPIEKTISKAKGQPREPQVYTLPPSRKEMTKNQVSLTCLVKGFYPSDIAVEWESNGQPENNYKTTPPYLDSDGSFFLYSKLTVDKSRWQQGNVFSCSVMHEALHNHYTQKSLSLSP
light 1: DIVMTQSPLSLPVTPGEPASISCRSSQSLVHSNRNTYLHWYQQKPGQAPRLLIYKVSNRFSGVPDRFSGSGSGTDFTLKISRVEAEDVGVYYCGQGTQVPYTFGQGTKLEIKRTVAAPSVFIFPPSDEQLKSGTASVVCLLNNFYPREAKVQWKVDNALQSGNSQESVTEQDSKDSTYSLSSTLTLSKADYEKHKVYACEVTHQGLSSPVTKSFNRGEC
heavy 2: QVQLVQSGAEVKKPGASVTVSCKASGYTFTDYEMHWIRQPPGEGLEWIGAIDGPTPDTAYSEKFKGRVTLTADKSTSTAYMELSSLTSEDTAVYYCTRFYSYTYWGQGTLVTVSSASTKGPSVFPLAPSSKSTSGGTAALGCLVKDYFPEPVTVSWNSGALTSGVHTFPAVLQSSGLYSLSSVVTVPSSSLGTQTYICNVNHKPSNTKVDKKVEPKSCDKTHTCPPCPAPELRGGPKVFLFPPKPKDTLMISRTPEVTCVVVDVSHEDPEVKFNWYVDGVEVHNAKTKPREEQYASTYRVVSVLTVLHQDWLNGKEYKCKVSNKALPAPIEKTISKAKGQPREPQVYTLPPSREEMTKNQVSLTCLVKGFYPSDIAVEWESNGQPENNYKTTPPYLDSDGSFFLYSKLTVDKSRWQQGNVFSCSVMHEALHNHYTQESLSLSP
light 2: DIVMTQSPLSLPVTPGEPASISCRSSQPLVHSNRNTYLHWYQQKPGQAPRLLIYKVSNRFSGVPDRFSGSGSGTDFTLKISRVEAEDVGVYYCGQGTQVPYTFGQGTKLEIKRTVAAPSVFIFPPSDEQLKSGTASVVCLLNNFYPREAKVQWKVDNALQSGNSQESVTEQDSKDSTYSLSSTLTLSKADYEKHKVYACEVTHQGLSSPVTKSFNRGEC
On to B1, for which, in assay [1], the “increase rate due to the protease treatment (luciferase, uPA-treated / untreated), antibody 0.1 nM” value amounted to 1 ratio and the “increase rate due to the protease treatment (luciferase, uPA-treated / untreated), antibody 1 nM” value amounted to 1.7 ratio.

B2: hCE115HAuPA20/GLS//GCH065 (bispecific antibody, human IgG1, kappa, N297A)
heavy 1: QDGNEEMGGITQTPYKVSISLSGRSDNHGGGSQVQLVESGGGVVQPGRSLRLSCAASGFTFSNAWMHWVRQAPGKGLEWVAQIKAKSNNYATYYAESVKGRFTISRDDSKNSLYLQMNSLKTEDTAVYYCRYVHYGAYYGVDAWGQGTTVTVSSASTKGPSVFPLAPSSKSTSGGTAALGCLVKDYFPEPVTVSWNSGALTSGVHTFPAVLQSSGLYSLSSVVTVPSSSLGTQTYICNVNHKPSNTKVDKKVEPKSCDKTHTCPPCPAPELRGGPKVFLFPPKPKDTLMISRTPEVTCVVVDVSHEDPEVKFNWYVDGVEVHNAKTKPREEQYASTYRVVSVLTVLHQDWLNGKEYKCKVSNKALPAPIEKTISKAKGQPREPQVYTLPPSRKEMTKNQVSLTCLVKGFYPSDIAVEWESNGQPENNYKTTPPYLDSDGSFFLYSKLTVDKSRWQQGNVFSCSVMHEALHNHYTQKSLSLSP
light 1: DIVMTQSPLSLPVTPGEPASISCRSSQSLVHSNRNTYLHWYQQKPGQAPRLLIYKVSNRFSGVPDRFSGSGSGTDFTLKISRVEAEDVGVYYCGQGTQVPYTFGQGTKLEIKRTVAAPSVFIFPPSDEQLKSGTASVVCLLNNFYPREAKVQWKVDNALQSGNSQESVTEQDSKDSTYSLSSTLTLSKADYEKHKVYACEVTHQGLSSPVTKSFNRGEC
heavy 2: QVQLVQSGAEVKKPGASVTVSCKASGYTFTDYEMHWIRQPPGEGLEWIGAIDGPTPDTAYSEKFKGRVTLTADKSTSTAYMELSSLTSEDTAVYYCTRFYSYTYWGQGTLVTVSSASTKGPSVFPLAPSSKSTSGGTAALGCLVKDYFPEPVTVSWNSGALTSGVHTFPAVLQSSGLYSLSSVVTVPSSSLGTQTYICNVNHKPSNTKVDKKVEPKSCDKTHTCPPCPAPELRGGPKVFLFPPKPKDTLMISRTPEVTCVVVDVSHEDPEVKFNWYVDGVEVHNAKTKPREEQYASTYRVVSVLTVLHQDWLNGKEYKCKVSNKALPAPIEKTISKAKGQPREPQVYTLPPSREEMTKNQVSLTCLVKGFYPSDIAVEWESNGQPENNYKTTPPYLDSDGSFFLYSKLTVDKSRWQQGNVFSCSVMHEALHNHYTQESLSLSP
light 2: DIVMTQSPLSLPVTPGEPASISCRSSQPLVHSNRNTYLHWYQQKPGQAPRLLIYKVSNRFSGVPDRFSGSGSGTDFTLKISRVEAEDVGVYYCGQGTQVPYTFGQGTKLEIKRTVAAPSVFIFPPSDEQLKSGTASVVCLLNNFYPREAKVQWKVDNALQSGNSQESVTEQDSKDSTYSLSSTLTLSKADYEKHKVYACEVTHQGLSSPVTKSFNRGEC
As to B2, in assay [1], the “increase rate due to the protease treatment (luciferase, uPA-treated / untreated), antibody 0.1 nM” value was determined as 1.1 ratio and the “increase rate due to the protease treatment (luciferase, uPA-treated / untreated), antibody 1 nM” value turned out to be 2.4 ratio.

B3: hCE115HAuPA04/GLS//GCH065 (bispecific antibody, human IgG1, kappa, N297A)
heavy 1: QDGNEEMGGGSGGGSGGGSLSGRSDNHGGGSQVQLVESGGGVVQPGRSLRLSCAASGFTFSNAWMHWVRQAPGKGLEWVAQIKAKSNNYATYYAESVKGRFTISRDDSKNSLYLQMNSLKTEDTAVYYCRYVHYGAYYGVDAWGQGTTVTVSSASTKGPSVFPLAPSSKSTSGGTAALGCLVKDYFPEPVTVSWNSGALTSGVHTFPAVLQSSGLYSLSSVVTVPSSSLGTQTYICNVNHKPSNTKVDKKVEPKSCDKTHTCPPCPAPELRGGPKVFLFPPKPKDTLMISRTPEVTCVVVDVSHEDPEVKFNWYVDGVEVHNAKTKPREEQYASTYRVVSVLTVLHQDWLNGKEYKCKVSNKALPAPIEKTISKAKGQPREPQVYTLPPSRKEMTKNQVSLTCLVKGFYPSDIAVEWESNGQPENNYKTTPPYLDSDGSFFLYSKLTVDKSRWQQGNVFSCSVMHEALHNHYTQKSLSLSP
light 1: DIVMTQSPLSLPVTPGEPASISCRSSQSLVHSNRNTYLHWYQQKPGQAPRLLIYKVSNRFSGVPDRFSGSGSGTDFTLKISRVEAEDVGVYYCGQGTQVPYTFGQGTKLEIKRTVAAPSVFIFPPSDEQLKSGTASVVCLLNNFYPREAKVQWKVDNALQSGNSQESVTEQDSKDSTYSLSSTLTLSKADYEKHKVYACEVTHQGLSSPVTKSFNRGEC
heavy 2: QVQLVQSGAEVKKPGASVTVSCKASGYTFTDYEMHWIRQPPGEGLEWIGAIDGPTPDTAYSEKFKGRVTLTADKSTSTAYMELSSLTSEDTAVYYCTRFYSYTYWGQGTLVTVSSASTKGPSVFPLAPSSKSTSGGTAALGCLVKDYFPEPVTVSWNSGALTSGVHTFPAVLQSSGLYSLSSVVTVPSSSLGTQTYICNVNHKPSNTKVDKKVEPKSCDKTHTCPPCPAPELRGGPKVFLFPPKPKDTLMISRTPEVTCVVVDVSHEDPEVKFNWYVDGVEVHNAKTKPREEQYASTYRVVSVLTVLHQDWLNGKEYKCKVSNKALPAPIEKTISKAKGQPREPQVYTLPPSREEMTKNQVSLTCLVKGFYPSDIAVEWESNGQPENNYKTTPPYLDSDGSFFLYSKLTVDKSRWQQGNVFSCSVMHEALHNHYTQESLSLSP
light 2: DIVMTQSPLSLPVTPGEPASISCRSSQPLVHSNRNTYLHWYQQKPGQAPRLLIYKVSNRFSGVPDRFSGSGSGTDFTLKISRVEAEDVGVYYCGQGTQVPYTFGQGTKLEIKRTVAAPSVFIFPPSDEQLKSGTASVVCLLNNFYPREAKVQWKVDNALQSGNSQESVTEQDSKDSTYSLSSTLTLSKADYEKHKVYACEVTHQGLSSPVTKSFNRGEC
Regarding B3, in assay [1], the “increase rate due to the protease treatment (luciferase, uPA-treated / untreated), antibody 0.1 nM” value turned out to be 1.3 ratio and the “increase rate due to the protease treatment (luciferase, uPA-treated / untreated), antibody 1 nM” value is 6.3 ratio.

B4: CE115VH-F760mnP17/GLS3000-k0 (Combination of rat anti-CD3 antibody and human anti-CD3 antibody) (antibody, human IgG1, kappa, N297A, V domains shown)
VH: EVQLVETGGSLVQPGKSLKLTCATSGFTFSNAWMHWVRQSPEKQLEWVAQIKAKSNNYATYYAESVKGRFTISRDDSKSNIYLQMNSLKEEDTAVYYCRYVHYGAYYGVDAWGQGTSVTVSS
VL: DIVMTQSPLSLPVTPGEPASISCRSSQSLVHSNRNTYLHWYQQKPGQAPRLLIYKVSNRFSGVPDRFSGSGSGTDFTLKISRVEAEDVGVYYCGQGTQVPYTFGQGTKLEIKR
As to B4, in the assay with CD3εδ heterodimer, the Kd was found to be 0.262 µM, the koff was found to be 0.0124 s⁻¹ and the kon is 47300 M⁻¹ s⁻¹.

B5: AN121H-F760mnP17/GLS3000-k0 (AN121) (antibody, human IgG1, kappa, N297A, V domains shown)
VH: QVQLVESGGGLVQPGRSLRLSCAASGFTFSNAWMHWVRQAPGKGLEWVAQIKDKANGYNAYYAESVKGRFTISRDDSKNSIYLQMNSLKTEDTAVYYCRYVHYTTYAGFSYKFGVDAWGQGTTVTVSS
VL: DIVMTQSPLSLPVTPGEPASISCRSSQSLVHSNRNTYLHWYQQKPGQAPRLLIYKVSNRFSGVPDRFSGSGSGTDFTLKISRVEAEDVGVYYCGQGTQVPYTFGQGTKLEIKR
On to B5, for which, in the assay with CD3εδ heterodimer, the Kd is 0.00968 µM, the dissociation rate constant (koff) was found to be 0.000723 s⁻¹ and the kon was found to be 74700 M⁻¹ s⁻¹.

B6: CE115HA000-F760mnP17/GLS3000-k0 (Humanized anti-CD3 antibody) (antibody, human IgG1, kappa, N297A, V domains shown)
VH: QVQLVESGGGVVQPGRSLRLSCAASGFTFSNAWMHWVRQAPGKGLEWVAQIKAKSNNYATYYAESVKGRFTISRDDSKNSLYLQMNSLKTEDTAVYYCRYVHYGAYYGVDAWGQGTTVTVSS
VL: DIVMTQSPLSLPVTPGEPASISCRSSQSLVHSNRNTYLHWYQQKPGQAPRLLIYKVSNRFSGVPDRFSGSGSGTDFTLKISRVEAEDVGVYYCGQGTQVPYTFGQGTKLEIKR
Take B6: in the assay with CD3εδ heterodimer, the dissociation constant Kd amounted to 0.556 µM, the koff was 0.0288 s⁻¹ and the kon was determined as 51800 M⁻¹ s⁻¹.
